Reference: patent US20070232789A1 (UNIVERSITY OF MARYLAND BALTIMORE, published 2007)
Where a chain is given by its changes, count along the chain named.

T1: A1/A3-C1-C2 heterodimer of factor VIII, plasma-derived (human, UniProt P00451 20-391; P00451 1709-2351)
T1 sequence 1: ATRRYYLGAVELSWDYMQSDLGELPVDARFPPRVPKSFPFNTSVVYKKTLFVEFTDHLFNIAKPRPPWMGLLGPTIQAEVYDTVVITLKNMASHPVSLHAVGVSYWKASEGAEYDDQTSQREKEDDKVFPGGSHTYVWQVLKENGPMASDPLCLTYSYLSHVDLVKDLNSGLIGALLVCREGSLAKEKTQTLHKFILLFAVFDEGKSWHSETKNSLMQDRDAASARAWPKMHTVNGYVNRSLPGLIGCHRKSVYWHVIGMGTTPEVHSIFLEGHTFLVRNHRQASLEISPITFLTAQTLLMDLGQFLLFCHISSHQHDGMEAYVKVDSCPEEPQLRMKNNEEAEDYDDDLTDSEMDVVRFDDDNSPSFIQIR
T1 sequence 2: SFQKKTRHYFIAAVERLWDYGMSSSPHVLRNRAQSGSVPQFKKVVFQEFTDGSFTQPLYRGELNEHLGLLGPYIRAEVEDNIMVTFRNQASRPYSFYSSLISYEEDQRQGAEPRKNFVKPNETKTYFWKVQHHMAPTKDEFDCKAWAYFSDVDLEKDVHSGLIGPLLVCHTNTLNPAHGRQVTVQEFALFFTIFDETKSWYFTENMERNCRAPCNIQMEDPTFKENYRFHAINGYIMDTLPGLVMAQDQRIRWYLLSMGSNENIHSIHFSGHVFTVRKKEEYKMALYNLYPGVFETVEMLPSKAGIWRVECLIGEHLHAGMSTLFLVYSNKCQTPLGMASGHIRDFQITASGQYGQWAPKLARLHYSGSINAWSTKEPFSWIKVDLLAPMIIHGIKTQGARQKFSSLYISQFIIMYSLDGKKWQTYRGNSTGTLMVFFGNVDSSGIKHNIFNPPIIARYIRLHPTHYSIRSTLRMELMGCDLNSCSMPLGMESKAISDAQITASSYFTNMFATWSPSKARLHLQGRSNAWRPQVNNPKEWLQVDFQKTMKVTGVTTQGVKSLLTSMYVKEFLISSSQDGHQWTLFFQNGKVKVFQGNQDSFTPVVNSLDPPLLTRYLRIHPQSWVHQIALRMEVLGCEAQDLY

B1: 39 kDa receptor-associated protein (RAP), human, expressed in bacteria (other)
chain: YSREKNQPKPSPKRESGEEFRMEKLNQLWEKAQRLHLPPVRLAELHADLKIQERDELAWKKLKLDGLDEDGEKEARLIRNLNVILAKYGLDGKKDARQVTSNSLSGTQEDGLDDPRLEKLWHKAKTSGKFSGEELDKLWREFLHHKEKVHEYNVLLETLSRTEEIHENVISPSDLSDIKGSVLHSRHTELKEKLRSINQGLDRLRRVSHQGYSTEAEFEEPRVIDLWDLAQSANLTDKELEAFREELKHFEAKIEKHNHYQKQLEIAHEKLRHAESVGDGERVSRSREKHALLEGRTKELGYTVKKHLQDLSGRISRARHNEL
notes: also called α2 macroglobulin receptor-associated protein
B2: recombinant wild-type A2 domain of human factor VIII (hx-A2) (other)
chain: SGAKKHPKTWVHYIAAEEEDWDYAPLVLAPDDRSYKSQYLNNGPQRIGRKYKKVRFMAYTDETFKTREAIQHESGILGPLLYGEVGDTLLIIFKNQASRPYNIYPHGITDVRPLYSRRLPKGVKHLKDFPILPGEIFKYKWTVTVEDGPTKSDPRCLTRYYSSFVNMERDLASGLIGPLLICYKESVDQRGNQIMSDKRNVILFSVFDENRSWYLTENIQRFLPNPAGVQLEDPEFQASNIMHSINGYVFDSLQLSVCLHEVAYWYILSIGAQTDFLSVFFSGYTFKHKMVYEDTLTLFPFSGETVFMSMENPGLWILGCHNSDFRNRGMTALLKVSSCDKNTGDYYEDSYEDISAYLLSKNNAIEPR
notes: Secreted from Sf9 cells as hx-A2 and purified on mAb 8860; Removal of the tag is not reported; also called wt-A2; recombinant A2; not shown: N-terminal hx leader (6xHis tag, vector-derived linker, factor Xa site)
B3: recombinant A2 mutant #20 (Lys-556 to Ala) (other)
chain: B2 chain with K184A
notes: hx-A2 form from Sf9 cells; not shown: N-terminal hx leader (6xHis tag, vector-derived linker, factor Xa site)
B4: recombinant A2 mutant #15 (His-497 to Ala) (other)
chain: B2 chain with H125A
notes: hx-A2 form from Sf9 cells
B5: recombinant A2 mutant #8 (Tyr-487 to Ala) (other)
chain: B2 chain with Y115A
notes: hx-A2 form from Sf9 cells
B6: recombinant A2 mutant #17 (Lys-510 to Ala) (other)
chain: B2 chain with K138A
notes: as for B3
B7: recombinant A2 mutant #1 (Lys-376 to Ala) (other)
chain: B2 chain with K4A
notes: as for B3
B8: recombinant A2 mutant #9 (Ser-488 to Ala) (other)
chain: B2 chain with S116A
notes: hx-A2 form from Sf9 cells
B9: recombinant A2 mutant #14 (Lys-496 to Ala) (other)
chain: B2 chain with K124A
notes: hx-A2 form from Sf9 cells
B10: recombinant A2 mutant #12 (Leu-491 to Ala) (other)
chain: B2 chain with L119A
notes: hx-A2 form from Sf9 cells
B11: recombinant A2 mutant #18 (Lys-512 to Ala) (other)
chain: B2 chain with K140A
notes: as for B3
B12: recombinant A2 mutant #10 (Arg-489 to Ala) (other)
chain: B2 chain with R117A
notes: hx-A2 form from Sf9 cells
B13: recombinant A2 mutant #16 (His-499 to Ala as printed in Tables 1 and 2; Lys^499 in the text) (other)
chain: B2 chain with K127A
notes: hx-A2 form from Sf9 cells; also called Lys^499 Ala mutant; not shown: N-terminal hx leader (6xHis tag, vector-derived linker, factor Xa site)
B14: recombinant A2 mutant #13 (Lys-493 to Ala) (other)
chain: B2 chain with K121A
notes: hx-A2 form from Sf9 cells
B15: recombinant A2 mutant #19 (Lys-523 to Ala) (other)
chain: B2 chain with K151A
notes: as for B3
B16: recombinant A2 mutant #11 (Arg-490 to Ala) (other)
chain: B2 chain with R118A
notes: hx-A2 form from Sf9 cells

What was measured:
[1] = biological target: T2, low-density lipoprotein receptor-related protein (LRP), purified (human, UniProt Q07954 20-4544); assay: heterologous ligand displacement: RAP varied, competitor 125I-fVIII (1 nM), LRP-coated microtiter wells
T2 construct: mature; also called low density lipoprotein receptor-related protein/α2-macroglobulin receptor; LRP receptor
Method: (§1) FIGS. 15A-15B. […] Each point represents the mean value of triplicates and the error bars display the standard deviation. The curves show a best fit of the data to a model describing heterologous ligand displacement from a single class of binding sites using the program LIGAND.
(§2) Solid-phase binding assays. […] Microtiter wells were coated with purified LRP or BSA (3 μg/ml) in 50 mM Tris, 0.15 M NaCl, pH 8.0, for 16 h and then blocked with 3% BSA in TBS. […] The radioactivity bound to the wells was counted using a γ-counter (Pharmacia). Affinity constants were derived from homologous and heterologous displacement data using the computer program LIGAND (Munson, P T and Rodbard, D. Anal. Biochem. 107:220-239 (1980)).

[2] = biological target: T2, low-density lipoprotein …; assay: heterologous displacement of ^125I-fVIII (1 nM) from LRP-coated wells
Method: as §1, §2

[3] = biological target: T2, low-density lipoprotein …; assay: competition: peptide 484-509 varied, competitor 125I-fVIII, LRP-coated microtiter wells
Method: FIGS. 17A-17B. […] The mean and standard deviation of the triplicate measurements are presented.
as §2

[4] = biological target: T1, A1/A3-C1-C2 heterodimer of factor VIII, …; assay: cell-based or functional assay
[5] = biological target: T2, low-density lipoprotein …; assay: SPR, BIAcore 3000, one-site model, KD = koff/kon
Excerpt: (§3) Surface plasmon resonance-based binding assay. […] This system allows real-time biomolecular interaction analysis (BIA) using surface plasmon resonance (SPR) technology. One molecule (the ligand) is usually immobilized on the surface of the sensor chip; the second molecule (the analyte) in solution is passed over the chip under conditions of continuous flow, and the amount of the bound analyte is detected by the system. SPR is a non-invasive optical measuring technique which measures the mass concentration of biomolecules in close proximity to the sensor chip where association and dissociation of biomolecular complexes occurs. […] The association (kₒₙ) and dissociation (koff) rate constants were determined using BIAevaluation Version 3.1 software. The data were corrected for bulk refraction index changes and fitted to a one-site binding model by a non-linear regression analysis Equilibrium dissociation constants (KD) were calculated from the ratio koff/kₒₙ.

[6] = biological target: T2, low-density lipoprotein …; assay: SPR, BIAcore 3000
Excerpt: as §3

T2 sequence (Q07954 20-4544, form in doubt): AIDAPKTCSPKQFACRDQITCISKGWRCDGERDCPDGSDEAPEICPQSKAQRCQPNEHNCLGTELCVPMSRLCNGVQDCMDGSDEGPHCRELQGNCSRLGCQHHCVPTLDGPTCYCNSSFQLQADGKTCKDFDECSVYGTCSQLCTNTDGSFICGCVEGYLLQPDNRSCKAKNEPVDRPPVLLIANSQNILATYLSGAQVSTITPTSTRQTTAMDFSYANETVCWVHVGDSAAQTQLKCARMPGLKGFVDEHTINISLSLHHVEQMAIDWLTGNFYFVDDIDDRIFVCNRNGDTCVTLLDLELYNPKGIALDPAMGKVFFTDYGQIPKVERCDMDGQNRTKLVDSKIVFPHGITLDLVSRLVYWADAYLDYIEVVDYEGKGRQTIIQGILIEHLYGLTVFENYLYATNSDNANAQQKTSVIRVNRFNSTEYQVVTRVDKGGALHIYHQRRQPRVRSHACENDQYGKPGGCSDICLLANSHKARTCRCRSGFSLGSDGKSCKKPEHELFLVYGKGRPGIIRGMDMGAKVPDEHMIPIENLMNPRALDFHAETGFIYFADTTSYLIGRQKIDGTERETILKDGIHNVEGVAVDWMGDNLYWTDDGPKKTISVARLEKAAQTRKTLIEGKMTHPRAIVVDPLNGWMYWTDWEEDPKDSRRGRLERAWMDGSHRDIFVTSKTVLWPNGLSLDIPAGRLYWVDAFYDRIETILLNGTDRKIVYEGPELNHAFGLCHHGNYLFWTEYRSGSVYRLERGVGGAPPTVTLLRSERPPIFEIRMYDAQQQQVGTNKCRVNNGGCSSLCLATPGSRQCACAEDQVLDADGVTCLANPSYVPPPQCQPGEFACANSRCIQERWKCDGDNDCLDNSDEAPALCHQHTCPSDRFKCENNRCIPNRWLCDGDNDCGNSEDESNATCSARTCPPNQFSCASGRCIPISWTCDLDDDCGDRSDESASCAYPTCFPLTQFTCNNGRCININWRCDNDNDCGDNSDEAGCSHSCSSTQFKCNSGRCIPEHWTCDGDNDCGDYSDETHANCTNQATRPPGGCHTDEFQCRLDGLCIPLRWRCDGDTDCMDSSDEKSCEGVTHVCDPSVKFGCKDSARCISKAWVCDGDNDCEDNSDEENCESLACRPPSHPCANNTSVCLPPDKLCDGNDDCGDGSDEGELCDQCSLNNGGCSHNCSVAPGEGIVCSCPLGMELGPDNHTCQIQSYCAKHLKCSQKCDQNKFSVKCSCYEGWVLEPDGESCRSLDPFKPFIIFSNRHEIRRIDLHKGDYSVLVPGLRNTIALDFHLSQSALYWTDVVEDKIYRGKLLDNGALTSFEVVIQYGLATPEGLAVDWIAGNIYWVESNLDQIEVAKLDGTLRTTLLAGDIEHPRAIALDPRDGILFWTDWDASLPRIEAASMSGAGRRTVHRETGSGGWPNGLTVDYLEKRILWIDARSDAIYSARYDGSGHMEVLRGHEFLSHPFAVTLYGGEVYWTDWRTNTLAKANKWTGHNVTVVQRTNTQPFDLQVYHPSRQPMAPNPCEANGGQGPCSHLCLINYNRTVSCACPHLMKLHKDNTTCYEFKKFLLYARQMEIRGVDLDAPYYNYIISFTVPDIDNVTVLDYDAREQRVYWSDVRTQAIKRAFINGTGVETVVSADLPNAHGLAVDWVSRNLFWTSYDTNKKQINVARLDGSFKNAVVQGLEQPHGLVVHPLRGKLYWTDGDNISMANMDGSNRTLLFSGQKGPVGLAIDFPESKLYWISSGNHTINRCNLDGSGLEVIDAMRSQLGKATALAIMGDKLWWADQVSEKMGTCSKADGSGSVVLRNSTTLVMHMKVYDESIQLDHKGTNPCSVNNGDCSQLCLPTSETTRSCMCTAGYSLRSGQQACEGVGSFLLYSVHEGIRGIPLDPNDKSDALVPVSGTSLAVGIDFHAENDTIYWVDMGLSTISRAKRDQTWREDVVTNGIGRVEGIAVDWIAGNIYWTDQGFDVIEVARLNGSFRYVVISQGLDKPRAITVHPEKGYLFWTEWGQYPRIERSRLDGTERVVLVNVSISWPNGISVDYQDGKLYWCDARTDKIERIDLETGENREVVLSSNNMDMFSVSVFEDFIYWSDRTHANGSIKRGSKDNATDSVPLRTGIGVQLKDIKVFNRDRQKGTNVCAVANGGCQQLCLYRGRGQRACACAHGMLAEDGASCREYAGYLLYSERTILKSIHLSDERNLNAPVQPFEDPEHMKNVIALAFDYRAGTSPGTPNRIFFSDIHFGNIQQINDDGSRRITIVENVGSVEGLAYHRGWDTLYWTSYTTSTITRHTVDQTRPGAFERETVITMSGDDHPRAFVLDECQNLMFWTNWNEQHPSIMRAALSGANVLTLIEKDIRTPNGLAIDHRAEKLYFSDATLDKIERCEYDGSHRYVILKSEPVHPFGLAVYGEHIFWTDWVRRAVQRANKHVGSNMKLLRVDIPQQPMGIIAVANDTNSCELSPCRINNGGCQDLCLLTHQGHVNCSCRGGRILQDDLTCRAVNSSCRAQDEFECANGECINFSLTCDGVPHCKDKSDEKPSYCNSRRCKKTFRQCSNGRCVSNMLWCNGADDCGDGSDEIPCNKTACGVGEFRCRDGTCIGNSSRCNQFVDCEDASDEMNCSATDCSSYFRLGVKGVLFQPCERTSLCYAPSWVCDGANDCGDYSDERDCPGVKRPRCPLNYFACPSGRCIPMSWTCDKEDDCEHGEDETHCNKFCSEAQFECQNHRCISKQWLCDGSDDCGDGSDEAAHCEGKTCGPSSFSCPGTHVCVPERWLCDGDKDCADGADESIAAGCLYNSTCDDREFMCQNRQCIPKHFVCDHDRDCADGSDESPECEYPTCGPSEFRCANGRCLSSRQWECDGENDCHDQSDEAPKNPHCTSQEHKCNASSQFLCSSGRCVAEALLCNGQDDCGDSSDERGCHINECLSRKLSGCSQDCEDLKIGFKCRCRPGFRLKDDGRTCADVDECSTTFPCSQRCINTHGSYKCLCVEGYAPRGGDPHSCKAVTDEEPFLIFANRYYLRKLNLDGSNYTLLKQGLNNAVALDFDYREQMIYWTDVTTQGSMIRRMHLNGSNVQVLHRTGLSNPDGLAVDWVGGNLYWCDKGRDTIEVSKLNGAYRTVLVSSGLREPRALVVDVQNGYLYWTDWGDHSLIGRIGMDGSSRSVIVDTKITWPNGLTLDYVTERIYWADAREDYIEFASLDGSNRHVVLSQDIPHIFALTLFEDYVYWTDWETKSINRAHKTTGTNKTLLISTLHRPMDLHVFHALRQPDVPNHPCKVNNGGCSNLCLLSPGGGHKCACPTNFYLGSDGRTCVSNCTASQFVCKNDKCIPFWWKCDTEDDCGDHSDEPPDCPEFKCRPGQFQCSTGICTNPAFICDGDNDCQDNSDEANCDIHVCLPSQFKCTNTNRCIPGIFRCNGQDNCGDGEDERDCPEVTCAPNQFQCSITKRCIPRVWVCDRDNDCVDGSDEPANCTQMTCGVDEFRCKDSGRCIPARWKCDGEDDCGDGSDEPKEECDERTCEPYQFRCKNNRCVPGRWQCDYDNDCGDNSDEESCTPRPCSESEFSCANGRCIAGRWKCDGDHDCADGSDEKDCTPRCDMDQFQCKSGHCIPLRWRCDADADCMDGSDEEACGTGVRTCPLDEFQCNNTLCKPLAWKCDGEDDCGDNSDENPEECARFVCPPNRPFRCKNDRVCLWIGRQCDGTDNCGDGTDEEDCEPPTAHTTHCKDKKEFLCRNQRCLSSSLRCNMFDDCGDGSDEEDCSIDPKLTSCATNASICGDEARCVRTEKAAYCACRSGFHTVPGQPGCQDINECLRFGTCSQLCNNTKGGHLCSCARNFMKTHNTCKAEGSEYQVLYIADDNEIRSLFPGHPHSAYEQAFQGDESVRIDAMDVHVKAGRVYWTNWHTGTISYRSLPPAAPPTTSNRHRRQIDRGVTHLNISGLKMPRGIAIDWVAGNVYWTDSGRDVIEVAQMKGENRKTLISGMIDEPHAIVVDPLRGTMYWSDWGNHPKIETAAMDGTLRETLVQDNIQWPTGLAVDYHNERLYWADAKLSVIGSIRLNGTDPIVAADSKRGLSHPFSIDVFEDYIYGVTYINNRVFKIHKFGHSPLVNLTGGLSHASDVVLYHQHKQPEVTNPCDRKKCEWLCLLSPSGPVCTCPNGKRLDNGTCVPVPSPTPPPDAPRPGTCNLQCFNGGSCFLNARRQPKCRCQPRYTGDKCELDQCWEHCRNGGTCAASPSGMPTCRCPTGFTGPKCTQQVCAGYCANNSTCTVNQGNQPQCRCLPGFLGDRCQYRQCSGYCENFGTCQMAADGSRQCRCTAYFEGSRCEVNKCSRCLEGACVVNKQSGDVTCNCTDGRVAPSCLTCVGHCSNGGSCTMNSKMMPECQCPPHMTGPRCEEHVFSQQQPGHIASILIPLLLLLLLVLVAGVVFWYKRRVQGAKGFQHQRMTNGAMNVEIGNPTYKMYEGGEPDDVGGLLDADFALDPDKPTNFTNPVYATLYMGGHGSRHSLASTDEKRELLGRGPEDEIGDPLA

| Activity of reconstituted FVIIIa (% of wt activity) [4] | Kd [5] | also measured | Binder |
| --- | --- | --- | --- |
| – | – | IC50 (read off the curve) [1]: ~2 nM; Ki [2]: 2.5 nM | B1 |
| – | – | IC50 (read off the curve) [3]: ~1000 nM | RPLYSRRLPKGVKHLKDFPILPGEIF [synthetic A2 domain peptide 484-509] |
| 100 % of wt activity | 21 nM | – | B2 |
| 196 % of wt activity | 33 nM | – | B3 |
| 242 % of wt activity | 51 nM | – | B4 |
| 87.9 % of wt activity | 97 nM | fold decrease of affinity against wt-A2 [6]: 5 fold | B5 |
| 91.5 % of wt activity | 29 nM | – | B6 |
| 73.9 % of wt activity | 25.5 nM | – | B7 |
| 232 % of wt activity | 67 nM | – | B8 |
| 263 % of wt activity | 9.5 nM | – | B9 |
| 518 % of wt activity | 21 nM | – | B10 |
| 219 % of wt activity | 21 nM | – | B11 |
| 130 % of wt activity | 150 nM | fold decrease of affinity against wt-A2 [6]: 7 fold | B12 |
| 128 % of wt activity | 33 nM | – | B13 |
| 267 % of wt activity | 18 nM | – | B14 |
| 390 % of wt activity | 41 nM | – | B15 |
| 151 % of wt activity | 59 nM | – | B16 |
